# Measurements from patent publication US20260250320A1, “LIPIDATED PEPTIDE INHIBITORS OF INTERLEUKIN-23 RECEPTOR” (Janssen Pharmaceutica NV, priority 2023, published 2026).
# *1 amine or outer side, *2 acyl side, *3 side chain or, on linkers, in order; H or OH if unused. Bridges are numbered along the chain shown (N, C = ends). Primed or numbered codes have the meaning given here. Where no end group is shown, it is not given here. Side-chain parts run from the residue outwards. [ ]: non-standard residue; d: D form. K(d) = (2R)-2-(4-((5-amino-5-carboxypentyl)amino)-4-oxobutanamido)-3-carboxy-N,N,N-trimethylpropan-1-aminium, C[N+](C)(C)C[C@@H](CC(=O)[*:3])NC(=O)CCC(=O)NCCCC[C@H](N[*:1])C(=O)[*:2]; TMAPF = 5-(4-(2-amino-2-carboxyethyl)phenoxy)-N,N,N-trimethylpentan-1-aminium, C[N+](C)(C)CCCCCOc1ccc(C[C@H](N[*:1])C(=O)[*:2])cc1; code d″ = lysine side-chain amide of a carnitine-succinyl group ((2R)-3-carboxy-N,N,N-trimethylpropan-1-aminium amide; PEG2′ = PEG2 spacer unit (not further defined); Trp(7-Me) = Cc1cccc2c(C[C@H](N)C(=O)O)c[nH]c12; γGlu = O=C(O)[C@H](CCC(=O)[*:2])N[*:1]; 2Nal = N[C@@H](Cc1ccc2ccccc2c1)C(=O)O; AEF = NCCOc1ccc(C[C@H](N)C(=O)O)cc1; 3Pal = N[C@@H](Cc1cccnc1)C(=O)O; succiniccarn = not defined here; NMeK = CN[C@@H](CCCCN)C(=O)O; NMecPEG3a = not defined here; Pen = CC(C)(S)[C@H](N)C(=O)O; NMeC18OH = not defined here; PEG2(3) = not defined here; 5cpaCO = not defined here; PEG12′ = not defined here; PEG2″ = PEG2 spacer unit; Thp = NC1(C(=O)O)CCOCC1; Sar = CNCC(=O)O
# T1: interleukin-23 receptor (IL-23R) (UniProt Q5VWK5 24-629, limits assumed)
# T1 sequence (looked up): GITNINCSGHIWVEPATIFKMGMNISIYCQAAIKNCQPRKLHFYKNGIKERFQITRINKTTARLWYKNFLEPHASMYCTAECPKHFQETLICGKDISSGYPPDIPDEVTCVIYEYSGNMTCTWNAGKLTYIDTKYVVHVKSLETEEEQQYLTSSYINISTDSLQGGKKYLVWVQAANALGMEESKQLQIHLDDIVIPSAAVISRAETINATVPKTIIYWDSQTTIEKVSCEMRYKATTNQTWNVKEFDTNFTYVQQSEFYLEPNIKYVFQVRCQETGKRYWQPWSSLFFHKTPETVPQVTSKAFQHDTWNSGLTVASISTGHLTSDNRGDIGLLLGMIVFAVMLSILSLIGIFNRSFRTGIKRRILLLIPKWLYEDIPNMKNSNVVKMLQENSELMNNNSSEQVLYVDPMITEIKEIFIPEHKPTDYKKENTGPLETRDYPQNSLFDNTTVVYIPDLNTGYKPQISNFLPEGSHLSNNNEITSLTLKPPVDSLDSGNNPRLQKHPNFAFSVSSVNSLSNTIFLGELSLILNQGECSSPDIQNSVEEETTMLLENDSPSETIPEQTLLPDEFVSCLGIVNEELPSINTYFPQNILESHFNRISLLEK
# Molecular target: T1, interleukin-23 receptor (IL-23R)
# Experiment: cell-based or functional assay
row,Binder,"IC50, IL23R reporter assay [µM]"
1,Ac-[dR][Pen]NT[Trp(7-Me)]K([PEG2″-PEG2″-γGlu-C18OH])[Pen][AEF][2Nal][Thp]EN[3Pal][Sar] (disulfide 2-7 (inferred); not fully specified (C-terminus); printed as MeCO-r-Pen(3)-N-T-7MeW-K(PEG2PEG2gEC18OH)-Pen(3)-AEF-2Nal-THP-E-N-3Pya-Sar-CONH(PEG3a)) [SEQ ID NO: 65],≥ 0.5
2,XNTXXXXXXENXX (not fully specified; MeCO-Pen(3)-N-T-7MeW-K(Ac)-Pen(3)-AEF-2Nal-THP-E-N-3Pya-Sar-CO(PEG2PEG2gEC18OH)) [SEQ ID NO: 147],≥ 0.5
3,Ac-[dR][Pen][K(d)]T[Trp(7-Me)]K(Ac)[Pen][AEF][2Nal][Thp]EN[3Pal][Sar]-NH2 (disulfide 2-7 (inferred); not fully specified (residue 8); printed as MeCO-r-Pen(3)-K(d)-T-7MeW-K(Ac)-Pen(3)-AEF(PEG2PEG2gEC18OH)-2Nal-THP-E-N-3Pya-Sar-CONH2) [SEQ ID NO: 10],< 0.05
4,XNTXXXXXXKNXX (not fully specified; MeCO-Pen(3)-N-T-7MeW-K(Ac)-Pen(3)-AEF-2Nal-THP-K(PEG2PEG2gEC18OH)-N-3Pya-Sar-CONH(PEG3a)) [SEQ ID NO: 64],≥ 0.5
5,RXNTWXXXXXENXX (C12gEPEG2PEG2CO-r-Abu(1)-N-T-W-K(Ac)-aMeC(1)-AEF-2Nal-THP-E-N-3Pya-Sar-CONH2) [SEQ ID NO: 5],< 0.05

# Results, then the binder that gave them:
row,"IC50, IL23R reporter assay [µM]",Binder
1,≥ 0.5,Ac-[dR][Pen]K([PEG2″-PEG2″-γGlu-C18OH])T[Trp(7-Me)]K(Ac)[Pen][AEF][2Nal][Thp]EN[3Pal][Sar] (disulfide 2-7 (inferred); not fully specified (C-terminus); printed as MeCO-r-Pen(3)-K(PEG2PEG2gEC18OH)-T-7MeW-K(Ac)-Pen(3)-AEF-2Nal-THP-E-N-3Pya-Sar-CONH(PEG3a)) [SEQ ID NO: 66]
2,< 0.05,Ac-[dR][Pen]K([PEG2(3)-PEG2(3)-γGlu-C18OH])T[Trp(7-Me)]K(Ac)[Pen][AEF][2Nal][Thp][K(d)]N[3Pal][Sar]-NH2 (disulfide 2-7 (inferred)) [SEQ ID NO: 12]
3,< 0.05,XNTXXXXXXENXXK (MeCO-Pen(3)-N-T-7MeW-K(Ac)-Pen(3)-AEF-2Nal-THP-E-N-3Pya-Sar-K(Sar-S-Sar-S-Sar-S-Sar-C14)-CONH2) [SEQ ID NO: 1]

# Molecular target: T1, interleukin-23 receptor (IL-23R)
# Experiment: cell-based or functional assay
# Remark: another data set of the same source
row,Binder,PBMC pSTAT3 IC50 [nM]
1,succiniccarn-[dR][Pen]NT[Trp(7-Me)]K(Ac)[Pen][AEF][2Nal][Thp]EN[3Pal][Sar]K([PEG2″-PEG2″-γGlu-C18OH])-NH2 (disulfide 2-7 (inferred); reading uncertain; also: printed as succiniccarn-r-Pen(3)-N-T-7MeW-K(Ac)-Pen(3)-AEF-2Nal-THP-E-N-3Pya-Sar-K(PEG2PEG2gEC18OH)-CONH2) [SEQ ID NO: 54],< 0.5
2,[dR][Pen]K([PEG2″-PEG2″-γGlu-C18OH])T[Trp(7-Me)]K(Ac)[Pen][AEF][2Nal][Thp]EN[3Pal][Sar]-NH2 (disulfide 2-7 (inferred); not fully specified (N-terminus); printed as cPEG3aCO-r-Pen(3)-K(PEG2PEG2gEC18OH)-T-7MeW-K(Ac)-Pen(3)-AEF-2Nal-THP-E-N-3Pya-Sar-CONH2) [SEQ ID NO: 55],< 0.5
3,Ac-[dR][Pen]NT[Trp(7-Me)]K(Ac)[Pen][AEF][2Nal][Thp]K([PEG12′-γGlu-C18OH])N[3Pal][Sar]-NH2 (disulfide 2-7 (inferred)) [SEQ ID NO: 146],< 0.5
4,Ac-[dR][Pen]NT[Trp(7-Me)]K([PEG2″-PEG2″-γGlu-C18OH])[Pen][AEF][2Nal][Thp]EN[3Pal][Sar]-NH2 (disulfide 2-7) [SEQ ID NO: 59],< 0.5
5,XNTXKXXXXKNXX (MeCO-Pen(3)-N-T-7MeW-K(NMecPEG3a)-Pen(3)-AEF-2Nal-THP-K(PEG2PEG2gEC18OH)-N-3Pya-Sar-CONH2) [SEQ ID NO: 86],< 0.5
6,cPEG3aCO-[dR][Pen]NT[Trp(7-Me)]K(Ac)[Pen][AEF][2Nal][Thp]EN[3Pal][Sar]K([PEG2(3)-PEG2(3)-γGlu-C18OH])-NH2 (disulfide 2-7 (inferred)) [SEQ ID NO: 160],< 0.5
7,Ac-[dR][Pen]NT[Trp(7-Me)]K(Ac)[Pen][AEF][2Nal][Thp]EN[3Pal][NMeK]([PEG2′-NMePEG2-NMegE-NMeC18OH])-NH2 (disulfide 2-7 (inferred); reading uncertain) [SEQ ID NO: 80],< 0.5
8,[dR][Pen]NT[Trp(7-Me)]K([PEG2″-PEG2″-C18OH])[Pen][AEF][2Nal][Thp]EN[3Pal][Sar]-NH2 (disulfide 2-7 (inferred); not fully specified (N-terminus); printed as 5cpaCO-r-Pen(3)-N-T-7MeW-K(PEG2PEG2C18OH)-Pen(3)-AEF-2Nal-THP-E-N-3Pya-Sar-CONH2) [SEQ ID NO: 71],< 0.5
9,Ac-[dK]([PEG2″-PEG2″-γGlu-C18OH])[Pen]NT[Trp(7-Me)]K(Ac)[Pen][AEF][2Nal][Thp]EN[3Pal][Sar]-NH2 (disulfide 2-7) [SEQ ID NO: 58],< 0.5
10,[dR][Pen]K([PEG2″-PEG2″-γGlu-C18OH])T[Trp(7-Me)]K(Ac)[Pen][AEF][2Nal][Thp]EN[3Pal][Sar]-NH2 (disulfide 2-7 (inferred); not fully specified (N-terminus); printed as 5cpaCO-r-Pen(3)-K(PEG2PEG2gEC18OH)-T-7MeW-K(Ac)-Pen(3)-AEF-2Nal-THP-E-N-3Pya-Sar-CONH2) [SEQ ID NO: 73],< 0.5
11,XNTXXXXXXKNXX (MeCO-Pen(3)-N-T-7MeW-K(Ac)-Pen(3)-AEF-2Nal-THP-K(PEG12gEC20OH)-N-3Pya-Sar-CONH2) [SEQ ID NO: 162],< 0.5
12,Ac-[dR][Pen]K(code d″)T[Trp(7-Me)]K(Ac)[Pen][AEF][2Nal][Thp]EN[3Pal][Sar]K([PEG2″-PEG2″-γGlu-C18OH])-NH2 (disulfide 2-7 (inferred)) [SEQ ID NO: 53],< 0.5
13,[dR][Pen]NT[Trp(7-Me)]K([PEG2″-PEG2″-C18OH])[Pen][AEF][2Nal][Thp]EN[3Pal][Sar]-NH2 (disulfide 2-7 (inferred); not fully specified (N-terminus); printed as cPEG3aCO-r-Pen(3)-N-T-7MeW-K(PEG2PEG2C18OH)-Pen(3)-AEF-2Nal-THP-E-N-3Pya-Sar-CONH2) [SEQ ID NO: 72],< 0.5

# Continued, values first:
row,PBMC pSTAT3 IC50 [nM],Binder
1,< 0.5,Ac-[dR][Pen]NT[Trp(7-Me)]K(code d″)[Pen][AEF][2Nal][Thp]EN[3Pal][Sar]K([PEG2″-PEG2″-γGlu-C18OH])-NH2 (disulfide 2-7 (inferred)) [SEQ ID NO: 52]
2,< 0.5,5cpaCO-[dR][Pen]NT[Trp(7-Me)]K(Ac)[Pen][AEF][2Nal][Thp]EN[3Pal][Sar]K([PEG2′-PEG2′-γGlu-C18OH])-NH2 (disulfide 2-7 (inferred); reading uncertain; also: printed as 5cpaCO-r-Pen(3)-N-T-7MeW-K(Ac)-Pen(3)-AEF-2Nal-THP-E-N-3Pya-Sar-K(PEG2PEG2gEC18OH)-CONH2) [SEQ ID NO: 81]
3,< 0.5,Ac-[Pen]NT[Trp(7-Me)]K(Ac)[Pen][TMAPF][2Nal][Thp]K([PEG2′-PEG2′-γGlu-C18OH])N[3Pal][Sar]-NH2 (disulfide 1-6 (inferred)) [SEQ ID NO: 85]
4,< 0.5,Ac-[dR][Pen]NT[Trp(7-Me)]K([PEG2′-PEG2′-γGlu-C18OH])[Pen][AEF][2Nal][Thp]K(NMecPEG3a)N[3Pal][Sar]-NH2 (disulfide 2-7 (inferred); reading uncertain; also: printed as MeCO-r-Pen(3)-N-T-7MeW-K(PEG2PEG2gEC18OH)-Pen(3)-AEF-2Nal-THP-K(NMecPEG3a)-N-3Pya-Sar-CONH2) [SEQ ID NO: 79]
5,< 0.5,XNTXXXXXXKNXX (cPEG3aCO-Pen(3)-N-T-7MeW-K(Ac)-Pen(3)-AEF-2Nal-THP-K(PEG2PEG2gEC18OH)-N-3Pya-Sar-CONH2) [SEQ ID NO: 78]
6,< 0.5,XNTXXXXXXKNXX (5cpaCO-Pen(3)-N-T-7MeW-K(Ac)-Pen(3)-AEF-2Nal-THP-K(PEG2PEG2gEC18OH)-N-3Pya-Sar-CONH2) [SEQ ID NO: 77]
